Results on one variant are retold here after IntAct's records for PubMed 30814734.

First the molecules themselves.
B1: BTB/POZ domain-containing protein KCTD16 (Homo sapiens), Q68DU8 (parent)
chain: MALSGNCSRYYPREQGSAVPNSFPEVVELNVGGQVYFTRHSTLISIPHSLLWKMFSPKRDTANDLAKDSKGRFFIDRDGFLFRYILDYLRDRQVVLPDHFPEKGRLKREAEYFQLPDLVKLLTPDEIKQSPDEFCHSDFEDASQGSDTRICPPSSLLPADRKWGFITVGYRGSCTLGREGQADAKFRRVPRILVCGRISLAKEVFGETLNESRDPDRAPERYTSRFYLKFKHLERAFDMLSECGFHMVACNSSVTASFINQYTDDKIWSSYTEYVFYREPSRWSPSHCDCCCKNGKGDKEGESGTSCNDLSTSSCDSQSEASSPQETVICGPVTRQTNIQTLDRPIKKGPVQLIQQSEMRRKSDLLRTLTSGSRESNMSSKKKAVKEKLSIEEELEKCIQDFLKIKIPDRFPERKHPWQSELLRKYHL
partner: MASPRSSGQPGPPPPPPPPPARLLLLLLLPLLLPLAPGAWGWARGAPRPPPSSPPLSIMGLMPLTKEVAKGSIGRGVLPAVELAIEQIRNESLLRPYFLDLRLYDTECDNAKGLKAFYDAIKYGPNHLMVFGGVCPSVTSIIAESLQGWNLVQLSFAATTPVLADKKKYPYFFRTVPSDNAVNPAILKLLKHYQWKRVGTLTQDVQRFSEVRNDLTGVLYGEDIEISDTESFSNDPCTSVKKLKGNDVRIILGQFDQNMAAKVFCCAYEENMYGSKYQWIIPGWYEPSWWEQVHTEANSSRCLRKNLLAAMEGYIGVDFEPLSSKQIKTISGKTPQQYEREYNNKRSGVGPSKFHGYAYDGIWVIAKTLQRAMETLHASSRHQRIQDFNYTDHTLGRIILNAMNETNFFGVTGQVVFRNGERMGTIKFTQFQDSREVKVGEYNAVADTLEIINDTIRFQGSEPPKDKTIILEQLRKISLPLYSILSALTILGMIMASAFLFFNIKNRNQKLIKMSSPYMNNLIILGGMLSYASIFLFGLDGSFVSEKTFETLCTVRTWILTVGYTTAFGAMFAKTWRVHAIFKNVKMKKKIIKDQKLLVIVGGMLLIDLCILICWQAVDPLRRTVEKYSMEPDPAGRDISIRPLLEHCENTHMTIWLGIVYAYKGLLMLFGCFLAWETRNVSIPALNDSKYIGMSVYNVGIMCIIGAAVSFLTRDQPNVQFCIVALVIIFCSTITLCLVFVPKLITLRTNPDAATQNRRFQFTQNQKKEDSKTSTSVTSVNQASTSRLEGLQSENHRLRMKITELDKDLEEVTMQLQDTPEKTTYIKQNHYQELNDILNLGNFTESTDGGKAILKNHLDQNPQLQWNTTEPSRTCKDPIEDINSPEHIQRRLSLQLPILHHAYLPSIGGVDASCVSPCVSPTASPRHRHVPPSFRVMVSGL

The assay covers variants of B1. Particulars: with gabr2_human GABBR2, O75899.
As for F80A, the “effect of a mutation on the interaction” value is on record as “disrupting interaction strength”.
